Reference: the Immune Epitope Database (IEDB)
pKd: −log10 of the molar value.

Key:
HLA-C*15:02 = assay: IEDB peptide-MHC binding, purified MHC/direct/fluorescence; filed as Kd, often an IC50 or EC50 that approximates it; ≥ and ≤ were set here for values at or beyond the usual limits of such assays; conditions: source organism: Salmonella enterica subsp. enterica serovar Typhi str. CT18
HLA-B*40:01 = assay: IEDB peptide-MHC binding, purified MHC/competitive/fluorescence; filed as Kd, often an IC50 or EC50 that approximates it; ≥ and ≤ were set here for values at or beyond the usual limits of such assays; conditions: source organism: Salmonella enterica subsp. enterica serovar Typhi
HLA-A*25:01 = assay: as above; conditions: source organism: Salmonella enterica subsp. enterica serovar Typhi
HLA-A*31:01 = assay: as above; conditions: source organism: Salmonella enterica subsp. enterica serovar Typhi
HLA-A*29:02 = assay: as above; conditions: source organism: Salmonella enterica subsp. enterica serovar Typhi
HLA-B*15:17 = assay: as above; conditions: source organism: Salmonella enterica subsp. enterica serovar Typhi
HLA-A*69:01 = assay: as above; conditions: source organism: Salmonella enterica subsp. enterica serovar Typhi
HLA-B*18:01 = assay: as above; conditions: source organism: Salmonella enterica subsp. enterica serovar Typhi
HLA-A*26:01 = assay: as above; conditions: source organism: Salmonella enterica subsp. enterica serovar Typhi

SVIDHIHYM
pKd (HLA-C*15:02): 7.02 | pKd (HLA-B*40:01): ≤ 4.70 | pKd (HLA-A*25:01): 7.86 | pKd (HLA-A*31:01): 6.64 | pKd (HLA-A*29:02): 8.92 | pKd (HLA-B*15:17): 7.30 | pKd (HLA-A*69:01): 9.22 | pKd (HLA-B*18:01): ≤ 4.70 | pKd (HLA-A*26:01): 9.55
